These results are taken from US20210269512A1 (NOVOBIND LIVESTOCK THERAPEUTICS, published 2021).

The target in this experiment is T1, Cpa (phospholipase) (Clostridium perfringens, UniProt P0C216 29-398).
T1 sequence: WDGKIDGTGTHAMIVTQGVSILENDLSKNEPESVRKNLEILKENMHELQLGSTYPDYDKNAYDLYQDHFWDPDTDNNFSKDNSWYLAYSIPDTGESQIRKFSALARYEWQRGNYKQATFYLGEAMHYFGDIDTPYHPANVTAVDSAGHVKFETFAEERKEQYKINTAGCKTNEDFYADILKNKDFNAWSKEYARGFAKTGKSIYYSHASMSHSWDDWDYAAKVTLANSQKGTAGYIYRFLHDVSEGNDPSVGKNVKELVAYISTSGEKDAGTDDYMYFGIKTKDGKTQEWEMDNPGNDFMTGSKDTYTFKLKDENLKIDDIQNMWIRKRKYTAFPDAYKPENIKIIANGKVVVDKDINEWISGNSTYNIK
Kind of experiment: phage ELISA, coated antigen. (An ELISA detects its analyte on a solid surface through an enzyme-linked reagent.)

B1: NBX0340 (VHH)
VHH: QVQLQESGGGLVQAGESLRLSCLAAGRTFSTSTLGWFRQAPGLEREFVAAIRYTSDYTARTTDYADSVKGRFAISRDYIKQAVYLQMNNLKPEDTAVYYCAAAKYGMGYSDPSGYTYWGQGTQVTVSS
In the case of B1, the binding result is recorded as “binds”.

B2: NBX0338 (VHH)
VHH: QVQLQESGGGLVQAGDSLRLSCATSGRSFSSYTMGWFRQTPGKEREFVAAISWSGTYYTDSVKGRFTISRDNAKNTVYLQMNSLKPEDTAVYYCAVGSRRLYYSSDINYWGQGTQVTVSS
In the case of B2, the binding result is reported as “binds”.

B3: NBX0339 (VHH)
VHH: QVQLQESGGGLVQAGDSLRLSCATSGLTVSRYTMGWFRQTPGKEREFVAAISWSGTYYTDSVKGRFTISRDNAKNMVYLQMNSLKPEDTAVYYCAAGSRRLHYSSDINYWGQGTQVTVSS
For the molecule B3, the binding result is “binds”.

B4: NBX0329 (VHH)
VHH: QVQLQESGGGLVQAGGSLRLSCATSGLTVSRYTMGWFRQTPGKDREFVAAISWSGTYYTDSVKGRFTISVDNAKNMVYLQMNSLKPEDTAVYYCAAGSRRLYYSNDINYWGQGTQVTVSS
As to B4, the binding result is “binds”.

B5: NBX0330 (VHH)
VHH: QVQLQESGGGLVQAGGSLRLSCAASSRTFSNYAMAWFRQTPGKEREFLATINGDTTFTIYADSVKGRFTISRDNAKNTLYLQMNSLKAEDTAVYYCAARQWNPTMRERDYGYWGQGTEVTVSS
B5: the binding result is “binds”.
